Measurements taken from patent US20210324359A1, “USE OF GRAM-NEGATIVE LYSIN-ANTIMICROBIAL PEPTIDE (AMP) POLYPEPTIDE CONSTRUCTS IN TREATING ENDOCARDITIS” (priority 2020, published 2021).
Like-named read-outs stand apart in the source and are kept apart here.

What was measured:
Staphylococcus aureus = experiment: Daptomycin MIC with […], positive control (Table 10); format: cell-based; conditions: for fold increase in MIC with SURVANTA: Staphylococcus aureus
Procedure: As a positive control, the impact of […] ® on daptomycin (DAP) activity against Staphylococcus aureus was also tested.

[1] = test system: P. aeruginosa isolate CFS-1292; experiment: MIC in CAA supplemented with a range of […] concentrations (Table 10); format: cell-based, Pseudomonas aeruginosa
[2] = test system: Pseudomonas aeruginosa strain CFS-1292 (meropenem resistant); conditions: for Fold Increase (MIC) in presence of cations: CFS-1292
Procedure: The activity of selected GN lysins and constructs in the presence of divalent cations was evaluated, and the impact of divalent cations at physiological concentrations was examined in the MIC assay format.

[3] = test system: carbapenem-resistant P. aeruginosa strains; experiment: Resensitization of carbapenem-resistant strains, combinations with imipenem or meropenem (Tables 18-22); format: cell-based, Pseudomonas aeruginosa
Procedure: Such resensitization may be determined by combining the present lysins or lysin-AMP polypeptide constructs with an antibiotic in a checkerboard assay as described herein. Antibiotic-resistant bacteria, such as carbapenem-resistant P. aeruginosa, are added to the lysin or lysin-AMP polypeptide construct combination. […] See Clinical and Laboratory Standards Institute (CLSI), CLSI. […] M100 Performance Standards for Antimicrobial Susceptibility Testing; 29th Edition. Clinical and Laboratory Standards Institute, Wayne, Pa., which is herein incorporated by reference in its entirety.
Up to seven carbapenem-resistant isolates were assessed. […] See Clinical and Laboratory Standards Institute (CLSI), CLSI. […] M100 Performance Standards for Antimicrobial Susceptibility Testing; 29th Edition. Clinical and Laboratory Standards Institute, Wayne, Pa.

**Q.** Which results are given for daptomycin?
**A.** fold increase in MIC with SURVANTA (Staphylococcus aureus; 0.09% SURVANTA): 32 fold; fold increase in MIC with SURVANTA (Staphylococcus aureus; 0.19% SURVANTA): 32 fold; fold increase in MIC with SURVANTA (Staphylococcus aureus; 1.56% SURVANTA): 128 fold; fold increase in MIC with SURVANTA (Staphylococcus aureus; 3.15% SURVANTA): 128 fold; inhibition by pulmonary surfactant (Staphylococcus aureus; SURVANTA 0.09-[…], S. aureus): inhibitory to the activity of DAP

B1: GN123: lysin obtained from Pseudomonas phage PhiPA3 (SEQ ID NO: 173) (protein)
chain: MTLLKKGDKGDAVKQLQQKLKDLGYTLGVDGNFGNGTDTVVRSFQTKMKLSVDGVVGNGTMSTIDSTLAGIKAWKTSVPFPATNKSRAMAMPTLTEIGRLTNVDPKLLATFCSIESAFDYTAKPYKPDGTVYSSAEGWFQFLDATWDDEVRKHGKQYSFPVDPGRSLRKDPRANGLMGAEFLKGNAAILRPVLGHEPSDTDLYLAHFMGAGGAKQFLMADQNKLAAELFPGPAKANPNIFYKSGNIARTLAEVYAVLDAKVAKHRA
modifications: Pseudomonas phage PhiPA3
**Q.** Which “fold increase in MIC with SURVANTA” value ([1]; 0.09% SURVANTA) does the source give for B1 here?
**A.** The value was 1 fold.

**Q.** What about the “fold increase in MIC with SURVANTA” value ([1]; 0.19% SURVANTA) of the same molecule?
**A.** Its value is 1 fold.

**Q.** What about the “fold increase in MIC with SURVANTA” value ([1]; 1.56% SURVANTA) of the same molecule?
**A.** The value was 1 fold.

**Q.** And the “fold increase in MIC with SURVANTA” value ([1]; 3.15% SURVANTA)?
**A.** The value was 2 fold.

**Q.** And the “Fold Increase (MIC) in presence of cations” value (“Fold Increase (MIC)” for short) ([2]; 25% CAA + […] CaCl2 (high))?
**A.** The value was 1 fold.

**Q.** And the “Fold Increase (MIC)” value ([2]; 25% CAA + […] CaCl2 (low))?
**A.** The value was 1 fold.

**Q.** What about the “Fold Increase (MIC)” value ([2]; 25% CAA + […] CaCl2 (medium)) of the same molecule?
**A.** The value was 1 fold.

**Q.** What about the “Fold Increase (MIC)” value ([2]; 25% CAA + […] CaCl2 and […] MgCl2) of the same molecule?
**A.** Its value is 1 fold.

**Q.** And the “Fold Increase (MIC)” value ([2]; 25% CAA + […] MgCl2 (high))?
**A.** Its value is 1 fold.

**Q.** And the “Fold Increase (MIC)” value ([2]; 25% CAA + […] MgCl2 (low))?
**A.** Its value is 1 fold.

**Q.** And the “Fold Increase (MIC)” value ([2]; 25% CAA + […] MgCl2 (medium))?
**A.** Its value is 1 fold.

**Q.** What about the “MIC in 25% CAA” value ([2]; strain CFS-1292, no added cations) of the same molecule?
**A.** Its value is 2 µg/mL.

**Q.** And the “resensitization to carbapenems in synergistic combinations” value ([3]; imipenem (IPM) and meropenem (MEM), carbapenem-resistant isolates)?
**A.** The value was “reductions of IPM and MEM MICS to below breakpoint values”.

**Q.** What about the “lysin MIC, Combination” value ([3]; in combination with imipenem, isolate PA19) of the same molecule?
**A.** Its value is 0.125 µg/mL.

**Q.** And the “lysin MIC, Combination” value ([3]; in combination with imipenem, isolate PA20)?
**A.** The value was 2 µg/mL.

**Q.** And the “lysin MIC, Combination” value ([3]; in combination with imipenem, isolate PA21)?
**A.** Its value is 1 µg/mL.

**Q.** And the “lysin MIC, Combination” value ([3]; in combination with imipenem, isolate PA22)?
**A.** The value was 1 µg/mL.

**Q.** And the “lysin MIC, Combination” value ([3]; in combination with imipenem, isolate PA23)?
**A.** Its value is 2 µg/mL.

**Q.** And the “lysin MIC, Combination” value ([3]; in combination with imipenem, isolate PA24)?
**A.** Its value is 2 µg/mL.

**Q.** What about the “lysin MIC, Combination” value ([3]; in combination with imipenem, isolate WC-452) of the same molecule?
**A.** The value was 2 µg/mL.

**Q.** What about the “lysin MIC, Combination” value ([3]; in combination with meropenem, isolate PA19) of the same molecule?
**A.** The value was 0.25 µg/mL.

**Q.** What about the “lysin MIC, Combination” value ([3]; in combination with meropenem, isolate PA20) of the same molecule?
**A.** The value was 1 µg/mL.

**Q.** What about the “lysin MIC, Combination” value ([3]; in combination with meropenem, isolate PA21) of the same molecule?
**A.** The value was 1 µg/mL.

**Q.** What about the “lysin MIC, Combination” value ([3]; in combination with meropenem, isolate PA22) of the same molecule?
**A.** The value was 1 µg/mL.

**Q.** What about the “lysin MIC, Combination” value ([3]; in combination with meropenem, isolate PA23) of the same molecule?
**A.** The value was 1 µg/mL.

**Q.** What about the “lysin MIC, Combination” value ([3]; in combination with meropenem, isolate PA24) of the same molecule?
**A.** The value was 0.5 µg/mL.

**Q.** What about the “lysin MIC, Combination” value ([3]; in combination with meropenem, isolate WC-452) of the same molecule?
**A.** Its value is 1 µg/mL.

**Q.** What about the “MIC, Alone” value ([3]; isolate PA19) of the same molecule?
**A.** Its value is 8 µg/mL.

**Q.** What about the “MIC, Alone” value ([3]; isolate PA20) of the same molecule?
**A.** The value was 16 µg/mL.

**Q.** What about the “MIC, Alone” value ([3]; isolate PA21) of the same molecule?
**A.** The value was 8 µg/mL.

**Q.** What about the “MIC, Alone” value ([3]; isolate PA22) of the same molecule?
**A.** Its value is 16 µg/mL.

**Q.** And the “MIC, Alone” value ([3]; isolate PA23)?
**A.** The value was 8 µg/mL.

**Q.** And the “MIC, Alone” value ([3]; isolate PA24)?
**A.** Its value is 16 µg/mL.

**Q.** And the “MIC, Alone” value ([3]; isolate WC-452)?
**A.** The value was 16 µg/mL.

**Q.** What about the FICI ([3]; lysin + imipenem, isolate PA19) of the same molecule?
**A.** The FICI was 0.03.

**Q.** And the FICI ([3]; lysin + imipenem, isolate PA20)?
**A.** The FICI was 0.188.

**Q.** What about the FICI ([3]; lysin + imipenem, isolate PA21) of the same molecule?
**A.** Its FICI is 0.141.

**Q.** And the FICI ([3]; lysin + imipenem, isolate PA22)?
**A.** Its FICI is 0.188.

**Q.** What about the FICI ([3]; lysin + imipenem, isolate PA23) of the same molecule?
**A.** Its FICI is 0.281.

**Q.** And the FICI ([3]; lysin + imipenem, isolate PA24)?
**A.** Its FICI is 0.188.

**Q.** What about the FICI ([3]; lysin + imipenem, isolate WC-452) of the same molecule?
**A.** The FICI was 0.188.

**Q.** What about the FICI ([3]; lysin + meropenem, isolate PA19) of the same molecule?
**A.** Its FICI is 0.046.

**Q.** What about the FICI ([3]; lysin + meropenem, isolate PA20) of the same molecule?
**A.** The FICI was 0.094.

**Q.** And the FICI ([3]; lysin + meropenem, isolate PA21)?
**A.** Its FICI is 0.156.

**Q.** And the FICI ([3]; lysin + meropenem, isolate PA22)?
**A.** The FICI was 0.125.

**Q.** What about the FICI ([3]; lysin + meropenem, isolate PA23) of the same molecule?
**A.** Its FICI is 0.156.

**Q.** And the FICI ([3]; lysin + meropenem, isolate PA24)?
**A.** The FICI was 0.094.

**Q.** What about the FICI ([3]; lysin + meropenem, isolate WC-452) of the same molecule?
**A.** Its FICI is 0.125.
